Source: publication PMC5562876, “The integration of Gβ and MAPK signaling cascade in zygote development” (Scientific Reports, 2017)
Numbering of substitutions follows the chain as printed. Names and notes keep the numbering of the source.

B1: AGG2 (purified, pull-down) (natural protein, Arabidopsis thaliana, UniProt Q93V47 1-100, looked up)
chain: MEAGSSNSSGQLSGRVVDTRGKHRIQAELKRLEQEARFLEEELEQLEKMDNASASCKEFLDSVDSKPDPLLPETTGPVNATWDQWFEGPKEAKRCGCSIL
notes: AGG2, G protein gamma subunit 2, Arabidopsis thaliana, At3G22942; fusion protein; source: E. coli, purified (glutathione agarose beads)
B2: AGB1 (purified, pull-down) (natural protein, Arabidopsis thaliana, UniProt P49177 1-377, looked up)
chain: MSVSELKERHAVATETVNNLRDQLRQRRLQLLDTDVARYSAAQGRTRVSFGATDLVCCRTLQGHTGKVYSLDWTPERNRIVSASQDGRLIVWNALTSQKTHAIKLPCAWVMTCAFSPNGQSVACGGLDSVCSIFSLSSTADKDGTVPVSRMLTGHRGYVSCCQYVPNEDAHLITSSGDQTCILWDVTTGLKTSVFGGEFQSGHTADVLSVSISGSNPNWFISGSCDSTARLWDTRAASRAVRTFHGHEGDVNTVKFFPDGYRFGTGSDDGTCRLYDIRTGHQLQVYQPHGDGENGPVTSIAFSVSGRLLFAGYASNNTCYVWDTLLGEVVLDLGLQQDSHRNRISCLGLSADGSALCTGSWDSNLKIWAFGGHRRVI
notes: AGB1, G protein beta subunit, Arabidopsis thaliana, At4G34460; source: E. coli, purified (glutathione agarose beads)
B3: AGG1 (purified, pull-down) (natural protein, Arabidopsis thaliana, UniProt Q9FDX9 1-98, looked up)
chain: MREETVVYEQEESVSHGGGKHRILAELARVEQEVAFLEKELKEVENTDIVSTVCEELLSVIEKGPDPLLPLTNGPLNLGWDRWFEGPNGGEGCRCLIL
notes: AGG1, G protein gamma subunit 1, Arabidopsis thaliana, At3G63420; fusion protein; source: E. coli, purified (glutathione agarose beads)
B4: MKK5 (purified, pull-down) (natural protein, Arabidopsis thaliana, UniProt Q8RXG3 1-348, looked up)
chain: MKPIQSPSGVASPMKNRLRKRPDLSLPLPHRDVALAVPLPLPPPSSSSSAPASSSAISTNISAAKSLSELERVNRIGSGAGGTVYKVIHTPTSRPFALKVIYGNHEDTVRRQICREIEILRSVDHPNVVKCHDMFDHNGEIQVLLEFMDQGSLEGAHIWQEQELADLSRQILSGLAYLHRRHIVHRDIKPSNLLINSAKNVKIADFGVSRILAQTMDPCNSSVGTIAYMSPERINTDLNHGRYDGYAGDVWSLGVSILEFYLGRFPFAVSRQGDWASLMCAICMSQPPEAPATASQEFRHFVSCCLQSDPPKRWSAQQLLQHPFILKATGGPNLRQMLPPPRPLPSAS
notes: MKK5, MAP kinase kinase 5, Arabidopsis thaliana, At3G21220; source: E. coli, purified (glutathione agarose beads)
B5: GPA1 (purified, pull-down) (natural protein, Arabidopsis thaliana, UniProt P18064 1-383, looked up)
chain: MGLLCSRSRHHTEDTDENTQAAEIERRIEQEAKAEKHIRKLLLLGAGESGKSTIFKQIKLLFQTGFDEGELKSYVPVIHANVYQTIKLLHDGTKEFAQNETDSAKYMLSSESIAIGEKLSEIGGRLDYPRLTKDIAEGIETLWKDPAIQETCARGNELQVPDCTKYLMENLKRLSDINYIPTKEDVLYARVRTTGVVEIQFSPVGENKKSGEVYRLFDVGGQRNERRKWIHLFEGVTAVIFCAAISEYDQTLFEDEQKNRMMETKELFDWVLKQPCFEKTSFMLFLNKFDIFEKKVLDVPLNVCEWFRDYQPVSSGKQEIEHAYEFVKKKFEELYYQNTAPDRVDRVFKIYRTTALDQKLVKKTFKLVDETLRRRNLLEAGLL
notes: GPA1, G protein alpha subunit, Arabidopsis thaliana, At2G26300; fusion protein; also called WtGPA1; source: E. coli, purified (glutathione agarose beads)
B6: GPA1^Q222L (purified, pull-down) (natural protein, Arabidopsis thaliana, UniProt P18064 1-383, looked up)
chain: B5 chain with Q222L
notes: GPA1, G protein alpha subunit, Arabidopsis thaliana, At2G26300, with Q222L; fusion protein; source: E. coli, purified (glutathione agarose beads)
B7: MKK4 (purified, pull-down) (natural protein, Arabidopsis thaliana, UniProt O80397 1-366, looked up)
chain: MRPIQSPPGVSVPVKSRPRRRPDLTLPLPQRDVSLAVPLPLPPTSGGSGGSSGSAPSSGGSASSTNTNSSIEAKNYSDLVRGNRIGSGAGGTVYKVIHRPSSRLYALKVIYGNHEETVRRQICREIEILRDVNHPNVVKCHEMFDQNGEIQVLLEFMDKGSLEGAHVWKEQQLADLSRQILSGLAYLHSRHIVHRDIKPSNLLINSAKNVKIADFGVSRILAQTMDPCNSSVGTIAYMSPERINTDLNQGKYDGYAGDIWSLGVSILEFYLGRFPFPVSRQGDWASLMCAICMSQPPEAPATASPEFRHFISCCLQREPGKRRSAMQLLQHPFILRASPSQNRSPQNLHQLLPPPRPLSSSSSPTT
notes: MKK4, MAP kinase kinase 4, Arabidopsis thaliana, At1G51660; source: E. coli, purified (glutathione agarose beads)

Experiments:
Test in all cases: pull-down; purified fusion proteins from E. coli incubated with glutathione agarose beads, 25 mM Tris-HCl pH 7.5, 100 mM NaCl, 1 mM DTT, 1 hr; seven washes with 0.1% Triton X-100; eluted with 15 mM GSH; immunoblot
Details in all cases: both partners purified
[1] = molecular target: B7
[2] = molecular target: B4
[3] = molecular target: T1, MPK6 (purified, pull-down) (Arabidopsis thaliana, UniProt Q39026 1-395)
T1 construct: MPK6, MAP kinase 6, Arabidopsis thaliana, At2G43790; fusion protein; source: E. coli, purified (glutathione agarose beads)

[4] = molecular target: B2

T1 sequence (Q39026 whole entry, the tested form may be a part): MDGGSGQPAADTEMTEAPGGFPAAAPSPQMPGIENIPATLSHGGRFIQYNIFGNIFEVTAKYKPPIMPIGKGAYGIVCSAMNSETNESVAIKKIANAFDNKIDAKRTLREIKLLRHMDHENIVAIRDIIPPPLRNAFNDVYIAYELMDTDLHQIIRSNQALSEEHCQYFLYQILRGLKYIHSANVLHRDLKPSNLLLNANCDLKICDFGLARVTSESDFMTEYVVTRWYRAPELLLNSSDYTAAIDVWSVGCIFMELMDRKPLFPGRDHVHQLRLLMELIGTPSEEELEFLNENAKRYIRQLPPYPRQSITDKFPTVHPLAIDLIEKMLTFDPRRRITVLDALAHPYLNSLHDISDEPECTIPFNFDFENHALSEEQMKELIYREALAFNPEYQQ

B1: binds [1]; binds [2]; binds [3].

B2: binds [3].

B3: binds [1]; binds [2]; binds [3].

B4: binds [4].

B5: binds [3].

B6: binds [3].

B7: binds [4].
